# Data as given in patent US7037662 (dated 2006).
# T1: LERK 7-FLAG (monovalent LERK7/AL-1 with N-terminal FLAG peptide) (human, UniProt P52803 21-203, limits assumed)
# T1 construct: domain: mature protein stopped before the hydrophobic tail; also called soluble LERK7
# T1 sequence (looked up): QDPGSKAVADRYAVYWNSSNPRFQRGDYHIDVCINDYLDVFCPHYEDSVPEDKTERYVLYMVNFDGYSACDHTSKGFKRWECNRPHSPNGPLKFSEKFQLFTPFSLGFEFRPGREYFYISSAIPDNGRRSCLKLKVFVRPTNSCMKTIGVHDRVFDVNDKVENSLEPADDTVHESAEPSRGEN
# B1: LERK7-Fc fusion protein (Fc fusion, UniProt P52803 21-203, looked up)
# chain: T1 sequence (looked up)
# notes: not shown: Fc and hinge regions of human IgG1
# B2: HEK I-VII (N-terminally FLAG-tagged HEK exodomain, exons I-VII) (receptor, human, UniProt P29320 21-541, looked up, not shown: small tags and cut ends)
# chain: ELIPQPSNEVNLLDSKTIQGELGWISYPSHGWEEISGVDEHYTPIRTYQVCNVMDHSQNNWLRTNWVPRNSAQKIYVELKFTLRDCNSIPLVLGTCKETFNLYYMESDDDHGVKFREHQFTKIDTIAADESFTQMDLGDRILKLNTEIREVGPVNKKGFYLAFQDVGACVALVSVRVYFKKCPFTVKNLAMFPDTVPMDSQSLVEVRGSCVNNSKEEDPPRMYCSTEGEWLVPIGKCSCNAGYEERGFMCQACRPGFYKALDGNMKCAKCPPHSSTQEDGSMNCRCENNYFRADKDPPSMACTRPPSSPRNVISNINETSVILDWSWPLDTGGRKDVTFNIICKKCGWNIKQCEPCSPNVRFLPRQFGLTNTTVTVTDLLAHTNYTFEIDAVNGVSELSSPPRQFAAVSITTNQAAPSPVLTIKKDRTSRNSISLSWQEPEHPNGIILDYEVKYYEKQEQETSYTILRARGTNVTISSLKPDTIYVFQIRARTAAGYGTNSRKFEFETSPDSFSISGESSQ
# notes: extracellular domain; CHO cell product; in the zebrafish experiments expressed from injected mRNA; also called HEK-FLAG
# B3: soluble HEK (sHEK), complete extracellular domain (exodomain) of HEK encoded by exons I-VII (receptor, human, UniProt P29320 21-541, looked up)
# chain: B2 chain
# notes: extracellular domain; Untagged soluble exodomain from CHO cells; also called HEK exodomain
# B4: LERK 3-FLAG (monovalent FLAG-tagged LERK 3) (ligand, UniProt P52797 23-214, looked up, not shown: small tags and cut ends)
# chain: QGPGGALGNRHAVYWNSSNQHLRREGYTVQVNVNDYLDIYCPHYNSSGVGPGAGPGPGGGAEQYVLYMVSRNGYRTCNASQGFKRWECNRPHAPHSPIKFSEKFQRYSAFSLGYEFHAGHEYYYISTPTHNLHWKCLRMKVFVCCASTSHSGEKPVPTLPQFTMGPNVKINVLEDFEGENPQVPKLEKSISG
# notes: CHO cell-derived
# B5: LERK 3-Fc fusion protein (Fc fusion, UniProt P52797 23-214, looked up)
# chain: B4 chain
# notes: not shown: human Fc domain
# B6: HEK I-III (FLAG-tagged HEK subdomain construct, exons I-III) (receptor, not shown: small tags and cut ends)
# chain: ELIPQPSNEVNLLDSKTIQGELGWISYPSHGWEEISGVDEHYTPIRTYQVCNVMDHSQNNWLRTNWVPRNSAQKIYVELKFTLRDCNSIPLVLGTCKETFNLYYMESDDDHGVKFREHQFTKIDTIAADESFTQMDLGDRILKLNTEIREVGPVNKKGFYLAFQDVGACVALVSVRVYFKKCPFTVKNLAMFPDTVPMDSQSLVEVRGSCVNNSKEEDPPRMYCSTEGEWLVPIGKCSCNAGYEERGFMCQ
# notes: Native signal peptide (residues 1-20) replaced by IL3 signal and FLAG
# B7: LERK 5-Fc fusion protein (Fc fusion, UniProt P52799 28-229, looked up)
# chain: IVLEPIYWNSSNSKFLPGQGLVLYPQIGDKLDIICPKVDSKTVGQYEYYKVYMVDKDQADRCTIKKENTPLLNCAKPDQDIKFTIKFQEFSPNLWGLEFQKNKDYYIISTSNGSLEGLDNQEGGVCQTRAMKILMKVGQDASSAGSTRNKDPTRRPELEAGTNGRSSTTSPFVKPNPGSSTDGNSAGHSGNNILGSEVALFA
# notes: not shown: human Fc domain
# B8: LERK 4-Fc fusion protein (Fc fusion, UniProt P52798 26-170, looked up)
# chain: LRHVVYWNSSNPRLLRGDAVVELGLNDYLDIVCPHYEGPGPPEGPETFALYMVDWPGYESCQAEGPRAYKRWVCSLPFGHVQFSEKIQRFTPFSLGFEFLPGETYYYISVPTPESSGQCLRLQVSVCCKERKSESAHPVGSPGES
# notes: not shown: human Fc domain
# Tests used:
# [1] = target: B3; test: BIAcore, apparent KD from equilibrium responses, LERK-Fc over immobilised HEK
# Description: (§1) Figure 2C: FIG. 2C: Expression of soluble HEK (sHEK) polypeptides encoded by the constructs shown in B. sHEK in lane 1 corresponds to the complete extracellular domain (exodomain) of HEK encoded by exons I–VII. […] Samples (50 μl) of purified fusion proteins comprising the human Fc domain and either LERK 1, 2, 3, 4, 5 and 7 at 10 μg/ml in BIAcore running buffer were applied onto an sHEK-derivatised sensor chip. The responses were recorded 20 s after completion of the injection phase and are shown as relative BIAcore response units, (RU) compared to the response of an equal amount of human Fc domain used as a control in this experiment.
# (§2) Receptor-ligand interactions within the Eph family RTKs has mainly been studied by modified indirect Scatchard analysis of human IgG-Fc fusion proteins of ligands or receptors binding to receptor or ligand transfected cells, respectively (Beckmann et al., 1994, supra; Davis et al., 1994, supra; Ceretti et al., 1995, supra: Bennett et at., 1995). To evaluate if BIAcore analysis also detected the interaction of various LERKs with HEK, we compared the binding of bivalent, Fc-fusion proteins of LERK (LERKS 1 to 5) and LERK 7 (FIG. 2C) to sensor chip-immobilised HEK exodomain. Each ligand sample was injected at concentrations between 0.1–10 µg/ml (approximately 0.8 to 80 nM) across the sensor chip. A sample containing 10 µg/ml of the recombinant Human Fc fragment was used as a control.
# [2] = target: T1, LERK 7-FLAG (monovalent LERK7/AL-1 with …); test: BIAcore in-solution competition; 40 nM LERK 7 with increasing competitor injected onto an sHEK-derivatised sensor chip; residual response as % of the response without competitor
# Description: (§3) The binding of various HEK constructs and derived peptides was analysed on the BIAcore optical biosensor (Pharmacia Biosensor, Sweden) using purified soluble HEK (corresponding to the entire extracellular domain) or LERK 7-FLAG derivatised CM 5 sensor chips and the interaction kinetics determined. The immobilization of HEK onto the sensor chip surface was performed essentially as described by Lackmann et al, 1996. LERK7-FLAG (47 μg/ml in 20 mM sodium acetate, pH 4.5) was coupled at 5 μl/min onto N-hydroxysuccinimide (NHS, 0.05 M)/N-hydroxysuccinimide-N-ethyl-N'-([…]) carbodiimide(EDC, 0.2 M) activated sensor chips (45 μl, 2 μl/min) to yield an increase in the response level of 2500–3000 response units (RU).
# Figure 2F: FIG. 2F: Samples containing 40 nM LERK 7 and 1 nM—10 μM synthetic peptide encoded by exons I and II of the HEK gene (Δ), 10 nM—1 μM HEK I–VII (o), 10 nM—1 μM HEK IV–VII (x) or 1 nM—1 μM HEK I-III (□) were injected onto an sHEK-derivatised sensor chip. The residual responses are illustrated as percentage of the total response in the absence of competitor.
# [3] = target: T2, recombinant Human Fc fragment (control) (human, UniProt P01857-1 99-330 = IgG part, limits assumed); test: BIAcore; human Fc domain at 10 µg/ml (50 µl) on an sHEK-derivatised sensor chip; response 20 s after the end of the injection
# T2 construct: domain: Fc fragment; also called human Fc domain; control recombinant Fc construct
# Description: as §1
# as §2, with “A sample containing 10 µg/ml of the recombinant Human Fc fragment was used as a control.” left out
# [4] = target: B3; test: BIAcore, LERK-FLAG over HEK sensor chip; reference LERK 7-FLAG
# [5] = target: B3; test: BIAcore, LERK 3-FLAG over immobilised sHEK, single component model
# Description: as §3
# (§4) Figures 5A, 5B: FIG. 5: Binding curves for the interaction of monovalent LERK-FLAG fusion proteins with immobilised sHEK. Homogeneous preparations of CHO cell-derived LERK 3-FLAG (panel A) or LERK 7-FLAG (panel B) at increasing concentrations (8.22, 16.44, 32.88, 65.75, 131.5, 263, 526 nM) of LERK3-FLAG, and (1.25, 2.5, 5, 10, 20, 40, 80 nM) LERK7-FLAG were injected across an sHEK-derivatised sensor surface. BIAcore data for the association and dissociation phases were used to estimate corresponding kinetic rate constants on the basis of a one-to-one interaction model. (panel C). […]
# [6] = target: B3; test: BIAcore, apparent KD from kinetic rate constants, immobilised sHEK
# Description: as §3, §4
binder,measurement,setting,value
B1,Kd,[1],3 nM
B2,IC50 (read off the curve),[2],~90 nM
B3,binding result,[3],no binding (tested: 10 µg/ml)
B4,fold higher concentration needed for a response comparable to LERK7,[4],~30 fold
same,koff,[5],0.26 s⁻¹
same,kon,[5],370000 M⁻¹ s⁻¹
same,Kd,[6],590 nM
B5,Kd,[1],5 nM
B6,IC50 (read off the curve),[2],~70 nM
B7,Kd,[1],24 nM
B8,Kd,[1],6 nM
